Results published in publication PMC9082959, “Mechanism of Assembly of the Non-Covalent Spectrin Tetramerization Domain from Intrinsically Disordered Partners” (Journal of molecular biology, 2013).

Experiments:
Experiment in all cases: ITC; β16β17 at 25–50 μM in the cell titrated with 15–20 injections to 2–2.5 eq of α0α1; one-site binding model; PBS (50 mM sodium phosphate, 150 mM NaCl, pH 7.04), 25 °C; mutants only against the wild-type partner
Details in all cases: both partners purified
β16β17 Y28L = target: T1, β16β17 Y28L (human, UniProt P11277 1898-2083, Y2031L)
T1 construct: erythrocyte β-spectrin, human, residues 1898-2083 (β16β17); mutant of m2; also called Y2031L; source: E. coli C41(DE3), purified (Ni2+ agarose, thrombin cleavage, gel filtration)
T1 sequence (looked up): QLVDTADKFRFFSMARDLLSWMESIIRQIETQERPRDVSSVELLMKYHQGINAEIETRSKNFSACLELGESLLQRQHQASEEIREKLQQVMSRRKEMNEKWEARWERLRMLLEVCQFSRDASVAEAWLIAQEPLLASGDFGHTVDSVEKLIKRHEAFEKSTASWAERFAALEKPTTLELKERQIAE

β16β17 F51L = β16β17 F51L (human, UniProt P11277 1898-2083, F51L (domain identifier), printed F2054G as protein identifier, The table's protein identifier F2054G is taken as a typo: the domain identifier is F51L (offset 2003), and the text says aromatic residues were mutated to Ala or Leu)
β16β17 L22A = target: T2, β16β17 L22A (human, UniProt P11277 1898-2083, L2025A)
T2 construct: erythrocyte β-spectrin, human, residues 1898-2083 (β16β17); mutant of m2; also called L2025A; source: E. coli C41(DE3), purified (Ni2+ agarose, thrombin cleavage, gel filtration)
T2 sequence (looked up): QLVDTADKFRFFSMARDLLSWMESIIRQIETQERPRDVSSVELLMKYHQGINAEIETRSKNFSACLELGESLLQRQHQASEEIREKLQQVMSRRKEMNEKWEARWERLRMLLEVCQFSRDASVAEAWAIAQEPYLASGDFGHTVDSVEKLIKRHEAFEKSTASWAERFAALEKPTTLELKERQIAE

β16β17 F11A = target: T3, β16β17 F11A (human, UniProt P11277 1898-2083, F2014A)
T3 construct: erythrocyte β-spectrin, human, residues 1898-2083 (β16β17); mutant of m2; also called F2014A; source: E. coli C41(DE3), purified (Ni2+ agarose, thrombin cleavage, gel filtration)
T3 sequence (looked up): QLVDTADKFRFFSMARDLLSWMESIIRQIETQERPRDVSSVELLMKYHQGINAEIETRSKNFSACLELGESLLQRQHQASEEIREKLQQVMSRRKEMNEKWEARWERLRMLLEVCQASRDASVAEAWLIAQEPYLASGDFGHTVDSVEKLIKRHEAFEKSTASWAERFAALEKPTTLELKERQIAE

β16β17 F11L = target: T4, β16β17 F11L (human, UniProt P11277 1898-2083, F2014L)
T4 construct: erythrocyte β-spectrin, human, residues 1898-2083 (β16β17); mutant of m2; also called F2014L; source: E. coli C41(DE3), purified (Ni2+ agarose, thrombin cleavage, gel filtration)
T4 sequence (looked up): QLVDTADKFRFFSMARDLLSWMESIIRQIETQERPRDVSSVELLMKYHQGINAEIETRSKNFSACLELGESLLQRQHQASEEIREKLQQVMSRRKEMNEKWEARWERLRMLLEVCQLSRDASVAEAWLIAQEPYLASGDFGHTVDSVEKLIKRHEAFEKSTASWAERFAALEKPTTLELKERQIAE

[1] = target: T5, β16β17 (erythrocyte β-spectrin residues 1898–2083), wild type (human, UniProt P11277 1898-2083)
T5 construct: erythrocyte β-spectrin, human, residues 1898-2083 (β16 plus the incomplete 17th domain); synthetic gene (GenScript) in a modified pRSETA plasmid; source: E. coli C41(DE3), purified (Ni2+ agarose, thrombin cleavage, gel filtration)
T5 sequence (looked up): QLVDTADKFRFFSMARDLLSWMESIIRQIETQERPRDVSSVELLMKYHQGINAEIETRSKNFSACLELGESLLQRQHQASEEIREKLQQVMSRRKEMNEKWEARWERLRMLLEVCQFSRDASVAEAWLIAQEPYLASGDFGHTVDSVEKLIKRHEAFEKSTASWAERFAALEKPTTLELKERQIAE

β16β17 L29A = target: T6, β16β17 L29A (human, UniProt P11277 1898-2083, L2032A)
T6 construct: erythrocyte β-spectrin, human, residues 1898-2083 (β16β17); mutant of m2; also called L2032A; source: E. coli C41(DE3), purified (Ni2+ agarose, thrombin cleavage, gel filtration)
T6 sequence (looked up): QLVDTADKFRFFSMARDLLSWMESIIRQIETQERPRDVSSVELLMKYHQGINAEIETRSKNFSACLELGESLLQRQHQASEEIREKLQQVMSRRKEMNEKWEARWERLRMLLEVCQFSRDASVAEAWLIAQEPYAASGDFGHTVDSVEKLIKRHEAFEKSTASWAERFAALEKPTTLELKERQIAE

- Ka (β16β17 Y28L): 170000 M⁻¹
- Ka (β16β17 F51L): 180000 M⁻¹
- Ka (β16β17 L22A): 6000 M⁻¹
- Ka (β16β17 F11A): 6000 M⁻¹
- Ka (β16β17 F11L): 16000 M⁻¹
- Ka [1]: 2.07e+06 M⁻¹
- Ka (β16β17 L29A): 290000 M⁻¹
B1: α0α1 (erythrocyte α-spectrin residues 2–163), wild type (domain or fragment, human, UniProt P02549 2-163, looked up)
chain: EQFPKETVVESSGPKVLETAEEIQERRQEVLTRYQSFKERVAERGQKLEDSYHLQVFKRDADDLGKWIMEKVNILTDKSYEDPTNIQGKYQKHQSLEAEVQTKSRLMSELEKTREERFTMGHSAHEETKAHIEELRHLWDLLLELTLEKGDQLLRALKFQQY
notes: synthetic gene (GenScript) in a modified pRSETA plasmid; also called α1α0; source: E. coli C41(DE3), purified (Ni2+ agarose, thrombin cleavage, gel filtration)
